For five molecules, Kd results are on record in PMC10602876, “Global profiling of ribosomal protein acetylation reveals essentiality of acetylation homeostasis in maintaining ribosome assembly and function” (Nucleic Acids Research, 2023).

Where a chain is given by its changes, count along the chain named. Names may count otherwise.

To fix the notation:
B1: 50S large subunit ribosomal protein L7/L12, wild type, His-tagged (natural protein, S. Typhimurium, UniProt P0A299 1-121, looked up)
chain: MSITKDQIIEAVSAMSVMDVVELISAMEEKFGVSAAAAVAVAAGPAEAAEEKTEFDVILKAAGANKVAVIKAVRGATGLGLKEAKDLVESAPAALKEGVSKDDAEALKKSLEEAGAEVEVK
notes: 50S ribosomal protein L7/L12 (RplL), S. Typhimurium strain 14028S, gene amplified from the genomic DNA; The r-protein genes seem to have been cloned into pSUMO3; also called WT L7/L12; RplL; source: E. coli BL21, purified (Ni-NTA); not shown: His6, C-terminal, kept
B2: L7/L12 K65R, His-tagged (natural protein)
chain: B1 chain with K66R
notes: 50S ribosomal protein L7/L12 (RplL), S. Typhimurium strain 14028S; Mimic of the non-acetylated form; same construct as m2 with the substitution; source: E. coli, purified (Ni-NTA); not shown: His6, C-terminal, kept
B3: L7/L12 K70R, His-tagged (natural protein)
chain: B1 chain with K71R
notes: as for B2
B4: L7/L12 K65Q, His-tagged (natural protein)
chain: B1 chain with K66Q
notes: 50S ribosomal protein L7/L12 (RplL), S. Typhimurium strain 14028S; Acetylation mimic; same construct as m2 with the substitution; source: E. coli, purified (Ni-NTA); not shown: His6, C-terminal, kept
B5: L7/L12 K70Q, His-tagged (natural protein)
chain: B1 chain with K71Q
notes: as for B4

In the assay the target is T1, Elongation factor EF-Tu, His-tagged, biotinylated (S. Typhimurium, UniProt P0A1H5 1-394, biotin (site not stated)).
T1 construct: Elongation factor Tu (tufA), S. Typhimurium strain 14028S, gene amplified from the genomic DNA; The methods sentence on vectors (pSUMO3 and pQE80, 'respectively') leaves open which vector was used; probably pQE80 with a C-terminal 6xHis; also called tufA; source: E. coli BL21, purified (Ni-NTA); biotinylated, PD-10 column; not shown: His6, C-terminal, kept
T1 sequence (P0A1H5 whole entry): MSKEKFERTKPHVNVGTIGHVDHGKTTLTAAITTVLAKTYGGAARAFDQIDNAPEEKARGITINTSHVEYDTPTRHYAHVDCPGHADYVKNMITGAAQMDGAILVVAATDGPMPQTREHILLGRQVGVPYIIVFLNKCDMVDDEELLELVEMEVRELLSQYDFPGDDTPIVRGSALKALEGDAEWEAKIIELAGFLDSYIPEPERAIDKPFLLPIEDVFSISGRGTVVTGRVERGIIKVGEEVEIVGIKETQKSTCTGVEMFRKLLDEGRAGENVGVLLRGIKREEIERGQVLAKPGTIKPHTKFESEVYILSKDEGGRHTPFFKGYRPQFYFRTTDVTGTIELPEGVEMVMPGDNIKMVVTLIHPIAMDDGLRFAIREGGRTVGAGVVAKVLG
The assay is described as follows: BLI; printed as thin-film interferometry (TFI), GatorPrime label-free analyzer; biotinylated EF-Tu loaded on the sensors; L7/L12 or mutants in solution at 12.5, 6.25, 3.125, 1.563, 0.781 and 0.391 uM in binding buffer at pH 7.4. The note with it: both partners purified. In general terms: Biolayer interferometry detects binding as a change in optical thickness at a sensor tip.
In the case of B1, the Kd – broadly, the concentration at which binding is half-saturated – is 0.74 µM. In turn, B2 displayed a Kd of 2.69 µM. B3 gave a Kd of 1.81 µM. For the molecule B4, the Kd is 1.52 µM. B5: binding was put at a Kd of 1.31 µM.
